These results are taken from US20170037111A1, “Novel peptides and combination of peptides for use in immunotherapy against ovarian cancer and other cancers” (immatics biotechnologies GmbH, priority 2015, published 2017).

For this assay, the target named is HLA-A*02:01 (Homo sapiens, UniProt P04439, D140Y/D185E/D98H/E176V/E277Q/G131W/G231S/I119V/I121R/I166T/I218V/L300P/L318F/N151K/N90K/P208A/P217A/Q86G/Q94H/R138H/R169H/T345S). Kind of assay: MHC binding assay (UV-ligand exchange, β2m ELISA, peptide exchange yield). The following applies: MHC class I binding score; binding to HLA-A*02:01 ranged by peptide exchange yield (UV-ligand exchange, β2m ELISA). The procedure, abridged:
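Binding is expressed as peptide exchange yield: stabilized MHC complexes were quantified by β2m ELISA, with a 450 nm TMB read-out on streptavidin-coated plates. Complexes came from UV-ligand exchange, where UV irradiation cleaves a photolabile peptide so the candidate peptide can load.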
(In an ELISA, binding on a coated surface is turned into a signal by an enzyme label.)

For “372 (TMLLNIPLV; listed as Homo sapiens) [compound 372]”, the Peptide exchange entry is listed as “″++″ (≧20% = ++)”.
In the case of “373 (SLLEDKGLAEV; listed as Homo sapiens) [compound 373]”, the Peptide exchange entry is recorded as “″++″ (≧20% = ++)”.
For the substance “374 (FLLQQHLISA; listed as Homo sapiens) [compound 374]”, the Peptide exchange entry is listed as “″++″ (≧20% = ++)”.
Take “375 (SLTETIEGV; listed as Homo sapiens) [compound 375]”: the Peptide exchange result is given as “″++″ (≧20% = ++)”.
Take “376 (AMFESSQNVLL; listed as Homo sapiens) [compound 376]”: the Peptide exchange entry is given as “″++″ (≧20% = ++)”.
In the case of “377 (FLLDSSASV; listed as Homo sapiens) [compound 377]”, the Peptide exchange entry is given as “″++″ (≧20% = ++)”.
Regarding “378 (ALGYFVPYV; listed as Homo sapiens) [compound 378]”, the Peptide exchange result is reported as “″+++″ (≧50% = +++)”.
As for “379 (IMEGTLTRV; listed as Homo sapiens) [compound 379]”, the Peptide exchange entry was “″++″ (≧20% = ++)”.
With “380 (TLIEDEIATI; listed as Homo sapiens) [compound 380]” the entry was “″++″ (≧20% = ++)”; with “381 (FIDEAYVEV; listed as Homo sapiens) [compound 381]”, “″++″ (≧20% = ++)”; with “382 (ALQNYIKEA; listed as Homo sapiens) [compound 382]”, “″++″ (≧20% = ++)”.
As to “383 (ALLELENSVTL; listed as Homo sapiens) [compound 383]”, the Peptide exchange result is “″+++″ (≧50% = +++)”.
In the case of “385 (SLLEQGLVEA; listed as Homo sapiens) [compound 385]”, the Peptide exchange result is “″++″ (≧20% = ++)”.
Consider “386 (ILFRYPLTI; listed as Homo sapiens) [compound 386]”, for which the Peptide exchange result is given as “″+++″ (≧50% = +++)”.
For the substance “387 (ALFQATAEV; listed as Homo sapiens) [compound 387]”, the Peptide exchange entry is reported as “″++++″ (≧75% = ++++)”.
Consider “388 (SLTIDGIRYV; listed as Homo sapiens) [compound 388]”, for which the Peptide exchange entry is recorded as “″+++″ (≧50% = +++)”.
For the substance “389 (LLADVTHLL; listed as Homo sapiens) [compound 389]”, the Peptide exchange entry is given as “″++″ (≧20% = ++)”.
With “390 (ALFMKQIYL; listed as Homo sapiens) [compound 390]” the entry was “″+++″ (≧50% = +++)”.
In the case of “391 (YVYPQRLNFV; listed as Homo sapiens) [compound 391]”, the Peptide exchange entry is “″+++″ (≧50% = +++)”.
As for “392 (ALLHPQGFEV; listed as Homo sapiens) [compound 392]”, the Peptide exchange entry is reported as “″++″ (≧20% = ++)”.
With “393 (GLLDTQTSQVLTA; listed as Homo sapiens) [compound 393]” the entry was “″++″ (≧20% = ++)”.
Consider “394 (LLAVIGGLVYL; listed as Homo sapiens) [compound 394]”, for which the Peptide exchange result is listed as “″+++″ (≧50% = +++)”.
With “396 (ALLPDLPAL; listed as Homo sapiens) [compound 396]”, the Peptide exchange entry is “″+++″ (≧50% = +++)”.
Then “397 (YLFGERLLEC; listed as Homo sapiens) [compound 397]”, with “″+++″ (≧50% = +++)”; and “398 (KLLEEDGTIITL; listed as Homo sapiens) [compound 398]”, with “″++″ (≧20% = ++)”.
For the substance “399 (YLFEPLYHV; listed as Homo sapiens) [compound 399]”, the Peptide exchange result is recorded as “″+++″ (≧50% = +++)”.
As to “400 (SLLTEQDLWTV; listed as Homo sapiens) [compound 400]”, the Peptide exchange entry is listed as “″++″ (≧20% = ++)”.
With “401 (ILLDDTGLAYI; listed as Homo sapiens) [compound 401]”, the Peptide exchange result was “″+++″ (≧50% = +++)”.
“402 (VLFSGALLGL; listed as Homo sapiens) [compound 402]”: the Peptide exchange entry is given as “″++″ (≧20% = ++)”.
